These results are taken from patent publication US6489293.

The experiment deals with T1, erythropoietin receptor on intact mouse spleen cells (mouse) (UniProt P14753).
T1 sequence (looked up): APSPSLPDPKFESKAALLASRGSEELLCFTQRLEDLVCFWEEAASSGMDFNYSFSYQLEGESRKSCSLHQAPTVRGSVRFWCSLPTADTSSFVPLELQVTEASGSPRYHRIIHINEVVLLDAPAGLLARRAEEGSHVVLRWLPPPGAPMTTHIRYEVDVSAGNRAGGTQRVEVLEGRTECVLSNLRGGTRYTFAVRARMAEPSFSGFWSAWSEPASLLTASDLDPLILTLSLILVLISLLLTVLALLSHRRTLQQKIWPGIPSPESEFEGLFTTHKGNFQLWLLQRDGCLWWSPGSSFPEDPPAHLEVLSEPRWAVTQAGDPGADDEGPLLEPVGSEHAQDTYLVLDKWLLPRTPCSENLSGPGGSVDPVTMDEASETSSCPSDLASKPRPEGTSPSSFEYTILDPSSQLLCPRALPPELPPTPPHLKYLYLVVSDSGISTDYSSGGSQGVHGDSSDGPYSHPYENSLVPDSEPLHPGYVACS
As to the kind of experiment: cell-based or functional assay.

With “erythropoietin mutant L108A (from UniProt P01588 28-193) (ligand)”, the SPECIFIC ACTIVITY (Krystal bioassay units per microgram by RIA, percent of wildtype erythropoietin), first set of experiments turned out to be 36.9%.
In turn, “erythropoietin mutant L102A (from UniProt P01588 28-193) (ligand)” registered an SPECIFIC ACTIVITY (Krystal bioassay units per microgram by RIA, percent of wildtype erythropoietin), first set of experiments of 93.3%.
With “erythropoietin mutant R103A (from UniProt P01588 28-193) (ligand)”, the SPECIFIC ACTIVITY (Krystal bioassay units per microgram by RIA, percent of wildtype erythropoietin), first set of experiments amounted to 0%; the SPECIFIC ACTIVITY (Krystal bioassay units per microgram by RIA, percent of wildtype erythropoietin), second set of experiments was 0%; the reduction in activity below wildtype human recombinant erythropoietin (Krystal bioassay) worked out at 1000 fold.
For the substance “erythropoietin mutant R103Q (from UniProt P01588 28-193) (ligand)”, the SPECIFIC ACTIVITY (Krystal bioassay units per microgram by RIA, percent of wildtype erythropoietin), first set of experiments was 0%; the SPECIFIC ACTIVITY (Krystal bioassay units per microgram by RIA, percent of wildtype erythropoietin), second set of experiments is 0%; the reduction in activity below wildtype human recombinant erythropoietin (Krystal bioassay) came out at 1000 fold.
“erythropoietin mutant R103K (from UniProt P01588 28-193) (ligand)” gave an SPECIFIC ACTIVITY (Krystal bioassay units per microgram by RIA, percent of wildtype erythropoietin), first set of experiments of 10.2% and an SPECIFIC ACTIVITY (Krystal bioassay units per microgram by RIA, percent of wildtype erythropoietin), second set of experiments of 25%.
“erythropoietin mutant R103L (from UniProt P01588 28-193) (ligand)” had an SPECIFIC ACTIVITY (Krystal bioassay units per microgram by RIA, percent of wildtype erythropoietin), first set of experiments of 0% and an SPECIFIC ACTIVITY (Krystal bioassay units per microgram by RIA, percent of wildtype erythropoietin), second set of experiments of 0.4%.
With “erythropoietin mutant R103D (from UniProt P01588 28-193) (ligand)”, the SPECIFIC ACTIVITY (Krystal bioassay units per microgram by RIA, percent of wildtype erythropoietin), first set of experiments was 0%; the SPECIFIC ACTIVITY (Krystal bioassay units per microgram by RIA, percent of wildtype erythropoietin), second set of experiments was determined as 0%; the reduction in activity below wildtype human recombinant erythropoietin (Krystal bioassay) worked out at 1000 fold.
Take “erythropoietin mutant R103N (from UniProt P01588 28-193) (ligand)”: the SPECIFIC ACTIVITY (Krystal bioassay units per microgram by RIA, percent of wildtype erythropoietin), first set of experiments worked out at 0%; the SPECIFIC ACTIVITY (Krystal bioassay units per microgram by RIA, percent of wildtype erythropoietin), second set of experiments turned out to be 0%; the reduction in activity below wildtype human recombinant erythropoietin (Krystal bioassay) was 1000 fold.
On to “erythropoietin mutant R103E (from UniProt P01588 28-193) (ligand)”, for which the SPECIFIC ACTIVITY (Krystal bioassay units per microgram by RIA, percent of wildtype erythropoietin), first set of experiments turned out to be 0%; the SPECIFIC ACTIVITY (Krystal bioassay units per microgram by RIA, percent of wildtype erythropoietin), second set of experiments was 0%; the reduction in activity below wildtype human recombinant erythropoietin (Krystal bioassay) was 1000 fold.
The substance “erythropoietin mutant R103H (from UniProt P01588 28-193) (ligand)” came in with an SPECIFIC ACTIVITY (Krystal bioassay units per microgram by RIA, percent of wildtype erythropoietin), first set of experiments of 0%.
